Assay results from patent publication US20130296247A1.

Experiments:
Test in all cases: cell-based or functional assay
[1] = target: Nav1.2 sodium channel (rBIIa) (UniProt P04775)
[2] = target: human Nav1.7 sodium channel alpha subunit (human) (UniProt Q15858)
[3] = target: Nav1.2 sodium channel (rBIIa), P04775

Chain of human Nav1.7 sodium channel alpha subunit (human) (Q15858 whole entry): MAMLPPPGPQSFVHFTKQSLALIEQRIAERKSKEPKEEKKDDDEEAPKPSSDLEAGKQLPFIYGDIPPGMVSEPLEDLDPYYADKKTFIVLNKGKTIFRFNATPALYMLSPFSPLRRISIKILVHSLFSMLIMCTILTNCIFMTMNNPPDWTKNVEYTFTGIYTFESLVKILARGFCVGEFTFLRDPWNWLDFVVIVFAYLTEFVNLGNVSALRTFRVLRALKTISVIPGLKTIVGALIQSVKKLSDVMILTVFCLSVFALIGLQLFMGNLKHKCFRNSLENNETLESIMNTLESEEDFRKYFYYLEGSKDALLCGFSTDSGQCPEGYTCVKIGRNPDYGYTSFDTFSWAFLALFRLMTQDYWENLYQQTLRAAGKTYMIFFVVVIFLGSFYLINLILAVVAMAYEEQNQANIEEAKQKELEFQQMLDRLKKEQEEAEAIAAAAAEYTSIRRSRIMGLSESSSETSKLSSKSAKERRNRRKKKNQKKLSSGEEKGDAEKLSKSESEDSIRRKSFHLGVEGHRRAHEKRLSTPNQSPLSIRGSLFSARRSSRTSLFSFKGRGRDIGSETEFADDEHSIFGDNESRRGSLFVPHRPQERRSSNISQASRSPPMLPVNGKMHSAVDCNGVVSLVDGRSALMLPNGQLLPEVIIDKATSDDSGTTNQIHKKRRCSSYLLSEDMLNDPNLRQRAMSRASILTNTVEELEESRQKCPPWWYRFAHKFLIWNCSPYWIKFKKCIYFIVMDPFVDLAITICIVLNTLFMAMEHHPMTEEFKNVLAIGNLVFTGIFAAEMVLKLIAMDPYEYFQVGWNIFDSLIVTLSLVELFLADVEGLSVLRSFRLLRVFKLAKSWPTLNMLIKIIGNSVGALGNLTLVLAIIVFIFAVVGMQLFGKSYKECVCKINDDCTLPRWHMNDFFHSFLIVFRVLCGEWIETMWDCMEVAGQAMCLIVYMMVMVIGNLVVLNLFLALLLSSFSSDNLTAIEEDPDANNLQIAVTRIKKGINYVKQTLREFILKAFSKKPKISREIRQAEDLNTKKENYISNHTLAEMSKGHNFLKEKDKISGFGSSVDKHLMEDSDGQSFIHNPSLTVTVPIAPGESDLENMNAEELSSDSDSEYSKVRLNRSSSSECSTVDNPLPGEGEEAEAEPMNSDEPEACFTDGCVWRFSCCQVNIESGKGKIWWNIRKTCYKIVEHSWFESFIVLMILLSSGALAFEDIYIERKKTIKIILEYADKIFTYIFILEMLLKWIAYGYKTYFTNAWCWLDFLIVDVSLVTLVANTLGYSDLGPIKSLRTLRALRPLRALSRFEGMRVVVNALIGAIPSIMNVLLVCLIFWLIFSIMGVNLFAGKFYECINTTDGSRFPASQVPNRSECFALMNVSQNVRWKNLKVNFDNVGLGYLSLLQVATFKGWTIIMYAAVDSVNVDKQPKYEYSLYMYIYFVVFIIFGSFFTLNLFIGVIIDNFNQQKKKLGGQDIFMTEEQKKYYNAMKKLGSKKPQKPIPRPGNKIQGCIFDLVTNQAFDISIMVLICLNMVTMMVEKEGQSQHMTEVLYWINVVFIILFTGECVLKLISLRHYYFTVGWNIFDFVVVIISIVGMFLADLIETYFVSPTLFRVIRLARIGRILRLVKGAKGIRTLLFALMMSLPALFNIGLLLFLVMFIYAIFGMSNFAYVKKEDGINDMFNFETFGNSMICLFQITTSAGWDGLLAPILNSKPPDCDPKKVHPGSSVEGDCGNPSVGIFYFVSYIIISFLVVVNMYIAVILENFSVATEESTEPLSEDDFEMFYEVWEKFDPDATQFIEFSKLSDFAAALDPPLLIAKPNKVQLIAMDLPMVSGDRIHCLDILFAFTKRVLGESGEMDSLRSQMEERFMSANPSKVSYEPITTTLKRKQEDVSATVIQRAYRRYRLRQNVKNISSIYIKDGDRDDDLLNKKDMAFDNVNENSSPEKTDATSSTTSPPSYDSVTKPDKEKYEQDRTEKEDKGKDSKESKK

Molecule	IC50 Nav1.2 [1] [µM]	IC50 Nav1.7 [2] [µM]	IC50 Nav1.2 [3] [µM]
GrTx I (peptide)	2.69	1.01	
GsAF I (peptide)	0.255	0.249	
GsAF II (peptide)	0.41	0.07	
GsMTx II/PaTX II (peptide)	2.7	0.26	
JzTx V (peptide)	0.157	0.014	
JzTx XII (peptide)	73.9		
Phrixotoxin I (peptide)	5		
VsTx II (peptide)	42.4	9.26	
YCQKWMWTCDSERKCCEGMVCRLWCKKKLW (modifications not checked) [peptide of SEQ ID NO: 2]			0.008
